B1: TPR t1 (parent)
chain: GACCAAUCUGCCCUCAGAGCUCGAGAACAUCUUCGGAUGCAGAGGAGGCAGGCUUCGGUGGCGCGAUAGCGCCAACGUCCUCAACCUCCAAUGCAUCCCACCACAUGAUGAUGCCUGAAGAGCCUUGGUUUUUUG

Variants of: B1
Assay: polymerase ribozyme fitness, log enrichment relative to wild type (log ratio); higher = more active; in vitro selection for triplet polymerase activity
Outline: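 Each subunit of a heterodimeric triplet polymerase ribozyme was represented by a PCR-built, transcribed mutant library that underwent triplicate single-round in vitro selection with frozen incubation at −7 °C. Extended constructs were recovered by gel excision, streptavidin-bead capture and RT-PCR, and Illumina sequencing of input and output libraries kept genotypes with ≥10 input reads and ≥1 read per output. Fitness is the logarithm of genotype enrichment relative to wild-type enrichment, from inverse-variance-weighted replicate averages, with a logarithm base of 2.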

| Variant | polymerase ribozyme fitness (log ratio) |
| --- | --- |
| C11G G128A | -1.59 |
| C11U C40G C82U A100U | -4.42 |
| C11G U30G U112A | -4.82 |
| C11G U14C A41G C56G | -0.436 |
| C11G G47A C88A G127C | -2.42 |
| C11G C70A G127C | -2.16 |
| C11U A29G C53U C73G | -1.9 |
| C11U C13G C114A | -4.11 |
| C11G U32A G48U C64A C73U U96A C123A | -7.31 |
| C11U C22G C40U U106G | -4.43 |
| C11U C20A G61U U133G | -2.19 |
| C11G C53G C62A C89A G122U | -3.13 |
| C11G G52U C62G U116A | -5.35 |
| C11U C40U G120A | -0.013 |
| C11U A43U G61U G63C C72G C88A C89U A111U | -6.46 |
| C11G A43C C62U U129C U130G | -3.83 |
| C11U A18G G45U G52U G61A A111G U130G U132A | -6.3 |
| C11G A95U U129C | -1.01 |
| C11G C40U C53U A68G U87A A90U U112A G127C | -6.81 |
| C11G G42U | -0.866 |
| C11G U32A G48U U96A C123A | -5.24 |

| Variant | polymerase ribozyme fitness (log ratio) |
| --- | --- |
| C11G C22U G36A | -4.08 |
| C11U A37C G45U G58A U96A C101A | -2.32 |
| C11G G23A | -5.25 |
| C11U C49G G61U A90C | -2.04 |
| C11U A66G U87G G113U | -5.47 |
| C11G C20U G69U A84U C85U G122A U126G G128U | -2.39 |
| C11G C22U G113U A119G | -5.79 |
| C11G C13U C70G C97A A103C C123U | -7.22 |
| C11G C22U A50U C56A G57U C89U | -6.34 |
| C11U C22G A26C C64U | -4.03 |
| C11G U33C G63A C99U A111C | -7.29 |
| C11G G60U U116G C124U | -3.49 |
| C11U C40G C53U C73G C79A C86U | -4.32 |
| C11G G36A G63C | -1.16 |
| C11G C22U G61C A83G | -6.84 |
| C11G C28G C86A C123U | -1.94 |
| C11G C12A U38G G71A U106C G113A | -3.24 |
| C11U C12U A29U G110U G122C C123A | -0.893 |
| C11U A43U A84U U112A G128C | -3.29 |
| C11U C20U C56A C88U C114U U131G | -0.397 |
| C11U A50U G57A | -1.89 |

| Variant | polymerase ribozyme fitness (log ratio) |
| --- | --- |
| C11G U106G | -0.452 |
| C11G C12G G48A G120C | 0.765 |
| C11G C15G G36U A74C G117C | 0.809 |
| C11U C13U A83C C97A | -4.34 |
| C11U C40U C101A | -2.4 |
| C11G G93C A105U A119U | -3.55 |
| C11G A41U G69C U81C | -4.06 |
| C11G C115A | 0.0312 |
| C11U A18C C72G G127A | -5.18 |
| C11G C72U | 0.401 |
| C11G C40U | -0.213 |
| C11G G19A A43U | -1.81 |
| C11G U109A G110C | -4.59 |
| C11G G71A C80G G128A | -6.67 |
| C11U A18C A27U A46U | -7.63 |
| C11G G93C C97G U106A G120C | -3.9 |
| C11G A37C C53U | 0.228 |
| C11G A50G C62U G110C | -4.81 |
| C11G C56G G57A U96C G113U | -3.3 |
| C11G U32A A46U C85A U126G | -5.61 |
| C11G C80U C101A | -0.977 |

| Variant | polymerase ribozyme fitness (log ratio) |
| --- | --- |
| C11U C22U U55C C56U A66U | -6.04 |
| C11U A90G C97G U129C | -5.59 |
| C11G G93U | 0.289 |
| C11G C72G G117A | -0.843 |
| C11G C40U G69U A74G C79A C115A | -4 |
| C11U C22A C73A A83U | -5.9 |
| C11G A46G C79U C82U C98U A118U | -0.917 |
| C11G A37C A46C G63U C123U | -1.9 |
| C11G G77A U92A U129C | -4.39 |
| C11G C20G A24G U116C | -6.56 |
| C11U C31U | -4.93 |
| C11U C49G A74U C123G | 0.499 |
| C11U A26U U54G | -2.81 |
| C11G U78C C82U G117A | -0.181 |
| C11G G44A U125G | -0.96 |
| C11G C22G C53G C82U | -3.79 |
| C11U A41U G69C | -2.81 |
| C11G G19U G36U A41U C53U C56A G93C C114A C124U U130A | -6.06 |
| C11U A43U G110U U132A | -3.03 |
| C11G U32C A41G G45A A90C U96C C98U U106G A111U | -6.91 |
| C11U A66C | -1.81 |

Source: the RNAGym collection of RNA variant scans (doi:10.1073/pnas.2313332121)
